The values below come from patent publication US20070141665A1.

The target of the assay is Cavβ3-I-II2.1 chimera (rat β3 subunit fused at its C-terminal end to the I-II loop of the rabbit Cavα2.1 subunit), [35S]-labelled (rat; rabbit) (UniProt P54287). The assay can be described thus: Gβγ (10 to 900 nM) displaces the intramolecular Cavβ-AID2.1 binding of [35S] Cavβ3-I-II2.1; read as binding of the chimera to GST-AID1.2 after 30 min at 30 °C, SDS-PAGE and autoradiography.

Usually IC50 stands for the concentration at which inhibition is half-maximal. A high value points to weaker potency.

UniProt P54287, sequence (P54287 other isoform, or with tags, fused parts or gaps mutant): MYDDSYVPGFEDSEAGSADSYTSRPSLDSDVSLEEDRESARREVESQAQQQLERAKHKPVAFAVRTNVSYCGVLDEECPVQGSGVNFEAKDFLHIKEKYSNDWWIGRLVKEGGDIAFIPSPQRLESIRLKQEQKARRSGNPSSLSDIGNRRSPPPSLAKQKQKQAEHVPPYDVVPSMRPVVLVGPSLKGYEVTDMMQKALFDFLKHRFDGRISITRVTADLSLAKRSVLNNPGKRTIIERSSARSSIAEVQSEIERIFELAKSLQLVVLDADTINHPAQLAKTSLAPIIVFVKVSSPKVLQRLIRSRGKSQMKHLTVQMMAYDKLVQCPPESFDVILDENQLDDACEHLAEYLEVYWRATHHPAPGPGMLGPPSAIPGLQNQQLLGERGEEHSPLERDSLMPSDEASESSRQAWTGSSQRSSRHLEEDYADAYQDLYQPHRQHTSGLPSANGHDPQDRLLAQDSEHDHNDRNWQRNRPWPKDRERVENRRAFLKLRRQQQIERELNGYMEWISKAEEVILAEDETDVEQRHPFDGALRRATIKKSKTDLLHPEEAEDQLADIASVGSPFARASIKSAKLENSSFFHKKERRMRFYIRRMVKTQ

G-protein Gβγ complex (Calbiochem) had an IC50 of 0.16 µM.
